The series addresses T1, PfuEndoQ (PF1551) (Pyrococcus furiosus, UniProt Q8U0N5 1-424).
T1 sequence: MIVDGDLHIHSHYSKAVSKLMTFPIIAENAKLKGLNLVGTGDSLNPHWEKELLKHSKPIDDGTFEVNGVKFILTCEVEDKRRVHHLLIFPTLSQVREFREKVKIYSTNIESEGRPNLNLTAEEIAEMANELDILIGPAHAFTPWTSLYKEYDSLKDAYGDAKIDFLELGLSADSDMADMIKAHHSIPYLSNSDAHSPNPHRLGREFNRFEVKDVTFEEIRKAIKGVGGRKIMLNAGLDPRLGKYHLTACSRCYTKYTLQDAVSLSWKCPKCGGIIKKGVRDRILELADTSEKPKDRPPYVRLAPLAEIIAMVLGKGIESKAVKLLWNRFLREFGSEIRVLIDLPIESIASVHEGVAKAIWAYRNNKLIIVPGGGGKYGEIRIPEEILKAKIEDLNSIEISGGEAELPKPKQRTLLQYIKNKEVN
The series can be described thus: EMSA; 1 mM Mg2+; 60 C; EMSA: 50 mM Tris-HCl pH 8.0, 1 mM MgCl2, 1 mM DTT, 0.01% Tween 20, 60 C 10 min, 5 nM DNA, 0-50 nM protein; 4% PAGE in TBE. The settings on record: protein: recombinant; tags: none (untagged; native stop codon in the reverse primer, pET21d); blunt.

This note sets out measurements from publication PMC4357722, “A novel endonuclease that may be responsible for damaged DNA base repair in Pyrococcus furiosus”.

B1: 45N dsDNA (normal duplex) (dsDNA)
DNA 1: CGAACTGCCTGGAATCCTGACGACATGTAGCGAACGATCACCTCA
DNA 2: TGAGGTGATCGTTCGCTACATGTCGTCAGGATTCCAGGCAGTTCG
With B1, the binding result was “no binding”.
